Reference: the Human Domainome abundance scans (Beltran et al. 2025)

B1: Dynamin-binding protein, residues 242 to 304; numbered along this chain, Q6XZF7 (parent)
chain: EEPGTYGVALYRFQALEPNELDFEVGDKIRILATLEDGWLEGSLKGRTGIFPYRFVKLCPDTR
B2: Zinc finger MYM-type protein 6, residues 427 to 504; numbered along this chain, O95789 (parent)
chain: KLKCQHCNHLFATKPELLFYKGKMFLFCGKNCSDEYKKKNKVVAMCDYCKLQKIIKETVRFSGVDKPFCSEVCKFLSA

Variants of: B1
Test: abundance fitness (aPCA) (normalised: wild type 0, dead -1); higher = more abundant; growth selection in yeast, the domain comes from the species named
Conditions: Homo sapiens

Abundance fitness of substitutions, site by site:
P60: Y -0.113 | W -0.274 | T 0.088 | L -0.434 | Q 0.087 | K 0.054 | M -0.317 | A -0.059 | C -0.15 | V -0.174 | E -0.076 | I -0.18 | N -0.26 | F -0.149 | G 0.003 | R -0.245
T62: D 0.021 | I -0.034 | F -0.137 | A -0.022 | N 0.105 | R -0.046 | L -0.214 | Y -0.127 | H 0.044 | W -0.37 | E -0.004 | Q -0.092 | V -0.04 | G 0.046 | C -0.198 | K -0.267 | P 0.079
R63: N 0.168 | L -0.005 | C -0.06 | A 0.087 | D 0.125 | M 0.049 | S 0.15 | T 0.186 | P 0.164 | V -0.056 | Q -0.184 | H 0.065 | W -0.206 | E -0.455 | G 0.119 | I -0.012 | F -0.216
D61: C -0.112 | Q -0.178 | I -0.237 | P -0.027 | W -0.195 | H -0.145 | A -0.095 | K -0.096 | E 0.186 | F -0.247 | L -0.185 | Y -0.391 | G -0.063 | M -0.144 | T -0.08
L58: E -0.708 | A -0.594 | C -0.409 | M -0.032 | T -0.301 | I -0.055 | S -0.64 | R -0.12 | D -0.366 | K -0.55 | P -0.379 | N -0.914 | Y -0.473 | Q -0.656 | F -0.186 | V -0.064
C59: Y 0.007 | R -0.339 | V 0.024 | E -0.109 | N -0.393 | L -0.049 | G -0.225 | H -0.227 | D -0.198 | Q 0.117 | K -0.086 | F 0.006 | W -0.324 | P -0.546 | T -0.192 | I 0.038
V56: H -0.696 | C -0.864 | Y -0.535 | P -0.334 | S -0.719 | R -0.887 | L -0.412 | N -0.711 | I -0.141 | A -0.521 | G -0.729 | F -0.525 | W -0.826 | T -0.594 | D -0.716 | Q -0.664
F55: W -0.374 | N -0.399 | T -0.472 | S -0.348 | V -0.614 | P -0.818 | R -0.621 | Q -0.774 | Y 0.079
K57: V -0.637 | W -0.677 | R -0.041 | A -0.318 | S -0.088 | Y -0.411 | E -0.6 | C -0.406 | G -0.58 | I -0.576 | T -0.167 | L -0.562 | P -0.746 | H -0.136 | D -0.257 | F -0.697 | Q -0.062

Variants of: B2
Test: as above
Conditions: Homo sapiens

Abundance fitness: each site, then its substitutions
H6: V -0.074 | W -0.102 | I -0.154 | R -0.03 | T -0.079 | C -0.046 | E 0.008 | K -0.46 | Q -0.098 | S -0.085 | L -0.104 | D -0.1 | M 0.033 | A -0.043 | F -0.14 | G -0.04 | P -0.993
H9: P -0.69 | Q 0.049 | C -0.085 | K 0.034 | V 0.032 | F -0.153 | N -0.011 | W -0.069 | M 0.022 | A 0.005 | T 0.042
